According to PMC11245488:

Molecular target: extracellular domain of human AXL (corresponding to sAXL) fused to C-terminal Fc (UniProt P30530)
Test: SEC-MALS; human sAXL-Fc in solution; protein-conjugate analysis (protein 140 kDa, glycans ~25 kDa, total 165 kDa); conditions in the Supplemental Material

## extracellular domain of human AXL (corresponding to sAXL) fused to C-terminal Fc (from UniProt P30530 26-451) (Fc fusion)
  stoichiometry N: 2
